Results on two substances are retold here after article PMC7810697, “Sarcolipin alters SERCA1a interdomain communication by impairing binding of both calcium and ATP” (Scientific Reports, 2021).

The target of assay [1] is recombinant wild-type rabbit SERCA1a (sarco-endoplasmic reticulum Ca2+-ATPase, isoform 1a) expressed in S. cerevisiae (rabbit) (UniProt P04191).
Assay [2] addresses native SERCA1a in DDM-solubilized rabbit sarco-endoplasmic reticulum membranes (rabbit) (UniProt P04191).
The target of assay [3] is recombinant wild-type rabbit SERCA1a (sarco-endoplasmic reticulum Ca2+-ATPase, isoform 1a) expressed in S. cerevisiae (rabbit) (UniProt P04191). The source holds these as a separate data set.
Assay [4] concerns the target native SERCA1a in DDM-solubilized rabbit sarco-endoplasmic reticulum membranes (rabbit) (UniProt P04191). The source holds these as a separate data set.

native SERCA1a in DDM-solubilized rabbit sarco-endoplasmic reticulum membranes (rabbit), sequence (P04191 other isoform, or with tags, fused parts or gaps): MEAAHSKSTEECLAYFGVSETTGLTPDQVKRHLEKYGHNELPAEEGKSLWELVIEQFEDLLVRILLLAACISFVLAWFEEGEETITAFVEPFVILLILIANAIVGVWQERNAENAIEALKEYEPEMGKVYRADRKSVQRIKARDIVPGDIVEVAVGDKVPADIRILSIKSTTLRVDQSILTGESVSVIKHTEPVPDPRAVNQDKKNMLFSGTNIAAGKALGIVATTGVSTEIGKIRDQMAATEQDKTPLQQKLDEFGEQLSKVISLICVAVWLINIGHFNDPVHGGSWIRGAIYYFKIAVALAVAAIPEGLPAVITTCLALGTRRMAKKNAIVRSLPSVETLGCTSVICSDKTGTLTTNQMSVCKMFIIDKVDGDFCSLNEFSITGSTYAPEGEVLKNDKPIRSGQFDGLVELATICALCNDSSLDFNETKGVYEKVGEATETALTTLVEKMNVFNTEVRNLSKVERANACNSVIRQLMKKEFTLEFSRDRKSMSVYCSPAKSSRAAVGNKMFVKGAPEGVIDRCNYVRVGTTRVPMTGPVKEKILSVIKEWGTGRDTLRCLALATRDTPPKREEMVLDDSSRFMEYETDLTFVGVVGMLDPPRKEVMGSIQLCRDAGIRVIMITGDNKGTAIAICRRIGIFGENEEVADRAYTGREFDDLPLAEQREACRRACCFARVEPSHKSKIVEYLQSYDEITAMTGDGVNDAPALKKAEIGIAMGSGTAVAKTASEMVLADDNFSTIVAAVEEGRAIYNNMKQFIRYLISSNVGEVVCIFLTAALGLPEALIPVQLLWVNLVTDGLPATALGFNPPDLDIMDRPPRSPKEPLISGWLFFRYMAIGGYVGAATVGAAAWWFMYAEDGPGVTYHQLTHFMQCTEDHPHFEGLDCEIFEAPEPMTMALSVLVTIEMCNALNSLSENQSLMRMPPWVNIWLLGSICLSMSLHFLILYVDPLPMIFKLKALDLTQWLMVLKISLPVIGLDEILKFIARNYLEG
recombinant wild-type rabbit SERCA1a (sarco-endoplasmic reticulum Ca2+-ATPase, isoform 1a) expressed in S. cerevisiae (rabbit), sequence (P04191 other isoform, or with tags, fused parts or gaps): as above

Turning to “chemically synthesized S-palmitoylated rabbit sarcolipin (peptide)”, in assay [1], the SLN:SERCA1a ratio at half-inhibition of the phosphoenzyme level (ratios 1:1 to 1:50) (mol SLN added per mole of SERCA1a) turned out to be 5.1; the amplitude of the inhibition of the phosphoenzyme level (dose-response fit) came out at 31.2%; the t1/2 of phosphorylation from [γ32P]ATP starting from a calcium-deprived state, Sarcolipin:SERCA1a 10:1 (6.8 without SLN) was 13.5 s. Besides, in assay [2], the SLN:SERCA1a ratio at half-inhibition of the phosphoenzyme level (ratios 1:1 to 1:50) (mol SLN added per mole of SERCA1a) amounted to 5.9 and the amplitude of the inhibition of the phosphoenzyme level (dose-response fit) is 28.1%. Moreover, in assay [3], the IC50 of inhibition of the phosphoenzyme level, as told in the discussion (mol of added SLN/mole of SERCA1a) was 5. Besides, the IC50 of inhibition of the phosphoenzyme level, as told in the discussion (mol added SLN/mole of SERCA1a) in assay [4] was determined as 5.6.
Consider “chemically synthesized non-palmitoylated rabbit sarcolipin (peptide)”, for which, in assay [1], the SLN:SERCA1a ratio at half-inhibition of the phosphoenzyme level (ratios 1:1 to 1:50) (mol SLN added per mole of SERCA1a) worked out at 4.7; the amplitude of the inhibition of the phosphoenzyme level (dose-response fit) came to 28.6%; the t1/2 of phosphorylation from [γ32P]ATP starting from a calcium-deprived state, Sarcolipin:SERCA1a 10:1 (6.8 without SLN) was 13.7 s. Moreover, in assay [2], the SLN:SERCA1a ratio at half-inhibition of the phosphoenzyme level (ratios 1:1 to 1:50) (mol SLN added per mole of SERCA1a) stood at 3.1 and the amplitude of the inhibition of the phosphoenzyme level (dose-response fit) came out at 19%. Further, in assay [3], the IC50 of inhibition of the phosphoenzyme level, as told in the discussion (mol of added SLN/mole of SERCA1a) is 4.5. This substance returned an IC50 of inhibition of the phosphoenzyme level, as told in the discussion (mol added SLN/mole of SERCA1a) in assay [4] of 2.9.
